Measurements published in publication PMC7573975.

Biological target: Red_a PSI complex (one PSI monomer of the trimer; chimeric Photosystem I of Synechocystis PCC 6803) (Synechocystis sp. PCC6803 | Synechocystis sp. PCC6803 (endogenous)) (UniProt P29254)
Experiment: cryo-EM structure; single particle Cryo-EM of the purified Red_a PSI trimer; 30 mM Tricine-NaOH pH 8, 150 mM NaCl, 0.02% DDM; 1 mg/ml chlorophyll; C1, symmetry expansion and multibody refinement with each monomer as a body

stoichiometry N: 3
Substance: Red_a PSI complex (one PSI monomer of the trimer; chimeric Photosystem I of Synechocystis PCC 6803) (from UniProt P29254 1-751; P29255 1-731; P32422 1-81; P72712 1-86; P37277 1-157)
